Changes are numbered by the printed parent chain.
Tests used:
Settings in all cases: tags: pcDNA3.1 expression
[1] = target: T1, variant nuclease E154G combination (P14R, D32R, I61R, E311R, E154G); assay: cell_activity; PAM 5'-ATTG-3'
T1 chain: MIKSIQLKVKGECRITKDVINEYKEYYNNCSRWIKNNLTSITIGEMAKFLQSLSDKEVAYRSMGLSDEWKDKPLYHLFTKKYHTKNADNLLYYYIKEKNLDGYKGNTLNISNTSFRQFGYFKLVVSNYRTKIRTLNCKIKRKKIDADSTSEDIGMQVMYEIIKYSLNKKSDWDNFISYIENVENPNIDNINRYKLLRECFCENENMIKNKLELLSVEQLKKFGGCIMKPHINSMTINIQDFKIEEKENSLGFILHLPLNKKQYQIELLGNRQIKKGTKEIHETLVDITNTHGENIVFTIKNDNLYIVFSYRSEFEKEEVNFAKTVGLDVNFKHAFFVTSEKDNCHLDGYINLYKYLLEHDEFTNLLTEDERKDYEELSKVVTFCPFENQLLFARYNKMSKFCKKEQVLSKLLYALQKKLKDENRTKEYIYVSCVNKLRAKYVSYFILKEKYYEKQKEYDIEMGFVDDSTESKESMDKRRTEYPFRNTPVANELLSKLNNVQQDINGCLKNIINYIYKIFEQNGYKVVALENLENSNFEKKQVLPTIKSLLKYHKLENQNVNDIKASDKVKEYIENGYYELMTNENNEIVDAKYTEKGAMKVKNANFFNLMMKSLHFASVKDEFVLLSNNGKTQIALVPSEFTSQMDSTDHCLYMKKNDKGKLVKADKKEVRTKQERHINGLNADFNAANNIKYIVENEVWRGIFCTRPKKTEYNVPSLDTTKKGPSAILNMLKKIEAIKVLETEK

[2] = target: T2, variant nuclease L38G combination (P14R, D32R, I61R, E311R, L38G); assay: cell_activity; PAM 5'-ATTG-3'
T2 chain: T1 chain with L38G, G154E

[3] = target: T3, variant nuclease SEQ ID NO: 53 (P14R, D32R, I61R, E311R, T338G, E736G); assay: cell_activity; % indels; HEK293T; PAM 5'-ATTG-3'
T3 chain: T1 chain with G154E, T338G, E736G

[4] = target: T3, variant nuclease SEQ ID NO: 53 (P14R, …); assay: cell_activity; % indels; HEK293T; PAM 5'-TTTA-3'

B1: EMX1 crRNA ; EMX1 target (ssRNA ; dsDNA)
RNA: CUUGUUGUAUAUGUCCUUUUAUAGGUAUUAAACAACCCGCCGCUUCCUGAGCCAUC
DNA 1: CCGCCGCTTCCTGAGCCATC
DNA 2: GATGGCTCAGGAAGCGGCGG
- indel editing activity [1]: 6.04 fold of WT
- indel editing activity [2]: 0.16 fold of WT
- indel frequency [3]: 11.9 fold of WT

B2: VEGFA crRNA ; VEGFA target (ssRNA ; dsDNA)
RNA: CUUGUUGUAUAUGUCCUUUUAUAGGUAUUAAACAACUCCAGACCACCAAUGGGCAC
DNA 1: TCCAGACCACCAATGGGCAC
DNA 2: GTGCCCATTGGTGGTCTGGA
- indel editing activity [4]: 3.04 fold of WT
